According to paper PMC7927433 (The Journal of Experimental Medicine, 2020):

Molecular target: T1, recombinant XPF-HA (human, UniProt Q92889 1-916)
T1 sequence: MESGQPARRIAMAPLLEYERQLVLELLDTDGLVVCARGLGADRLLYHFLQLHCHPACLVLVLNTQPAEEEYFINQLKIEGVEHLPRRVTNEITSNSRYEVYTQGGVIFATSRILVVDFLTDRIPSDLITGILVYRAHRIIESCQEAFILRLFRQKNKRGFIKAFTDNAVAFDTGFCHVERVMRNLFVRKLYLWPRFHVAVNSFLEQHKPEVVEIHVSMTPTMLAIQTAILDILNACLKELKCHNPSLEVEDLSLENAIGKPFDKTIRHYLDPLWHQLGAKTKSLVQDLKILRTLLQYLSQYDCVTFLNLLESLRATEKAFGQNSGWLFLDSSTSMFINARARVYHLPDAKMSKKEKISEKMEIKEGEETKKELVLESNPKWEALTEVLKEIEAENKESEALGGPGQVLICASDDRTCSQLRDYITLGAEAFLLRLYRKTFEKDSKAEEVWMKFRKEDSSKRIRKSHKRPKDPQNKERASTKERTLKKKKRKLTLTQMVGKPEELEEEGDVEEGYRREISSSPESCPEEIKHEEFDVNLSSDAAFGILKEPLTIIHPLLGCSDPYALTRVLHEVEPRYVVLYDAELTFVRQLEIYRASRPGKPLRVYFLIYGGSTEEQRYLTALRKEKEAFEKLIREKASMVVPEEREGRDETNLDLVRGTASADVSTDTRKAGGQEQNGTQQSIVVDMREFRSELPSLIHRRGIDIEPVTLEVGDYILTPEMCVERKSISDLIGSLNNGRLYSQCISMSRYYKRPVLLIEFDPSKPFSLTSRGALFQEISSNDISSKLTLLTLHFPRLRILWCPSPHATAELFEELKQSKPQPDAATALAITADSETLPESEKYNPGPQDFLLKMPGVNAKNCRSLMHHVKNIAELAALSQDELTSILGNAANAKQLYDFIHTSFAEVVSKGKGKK
Experiment: SEC

B1: recombinant ERCC1^R156W-His (natural protein)
chain: MDPGKDKEGVPQPSGPPARKKFVIPLDEDEVPPGVAKPLFRSTQSLPTVDTSAQAAPQTYAEYAISQPLEGAGATCPTGSEPLAGETPNQALKPGAKSNSIIVSPRQRGNPVLKFVRNVPWEFGDVIPDYVLGQSTCALFLSLRYHNLHPDYIHGWLQSLGKNFALRVLLVQVDVKDPQQALKELAKMCILADCTLILAWSPEEAGRYLETYKAYEQKPADLLMEKLEQDFVSRVTECLTTVKSVNKTDSQTLLTTFGSLEQLIAASREDLALCPGLGPQKARRLFDVLHEPFLKVP
Does B1 bind?
Result: binds
